Assay results reported in doi:10.1101/2025.06.05.658000 (2025).

What was measured:
Test in all cases: ELISA
[1] = target: HLA-DR (DRA1*01:01 / DRB1*03:01), soluble knob-into-hole Fc heterodimer (human)
[2] = target: HLA-DR (DRA1*01:01 / DRB1*04:06), soluble knob-into-hole Fc heterodimer (human)
[3] = target: HLA-DR (DRA1*01:01 / DRB1*01:02), soluble knob-into-hole Fc heterodimer (human)
[4] = target: HLA-DR (DRA1*01:01 / DRB1*11:04), soluble knob-into-hole Fc heterodimer (human)
[5] = target: HLA-DR (DRA1*01:01 / DRB1*13:02), soluble knob-into-hole Fc heterodimer (human)
[6] = target: HLA-DR (DRA1*01:01 / DRB1*14:01), soluble knob-into-hole Fc heterodimer (human)
[7] = target: HLA-DR (DRA1*01:01 / DRB1*14:54), soluble knob-into-hole Fc heterodimer (human)
[8] = target: HLA-DR (DRA1*01:01 / DRB1*16:02), soluble knob-into-hole Fc heterodimer (human)
[9] = target: HLA-DR (DRA1*01:01 / DRB1*11:01), soluble knob-into-hole Fc heterodimer (human)
[10] = target: HLA-DR (DRA1*01:01 / DRB1*09:01), soluble knob-into-hole Fc heterodimer (human)
[11] = target: HLA-DR (DRA1*01:01 / DRB1*15:03), soluble knob-into-hole Fc heterodimer (human)
[12] = target: HLA-DR (DRA1*01:01 / DRB1*12:02), soluble knob-into-hole Fc heterodimer (human)
[13] = target: HLA-DR (DRA1*01:01 / DRB1*04:07), soluble knob-into-hole Fc heterodimer (human)
[14] = target: HLA-DR (DRA1*01:01 / DRB1*13:01), soluble knob-into-hole Fc heterodimer (human)
[15] = target: HLA-DR (DRA1*01:01 / DRB1*12:01), soluble knob-into-hole Fc heterodimer (human)
[16] = target: HLA-DR (DRA1*01:01 / DRB1*04:03), soluble knob-into-hole Fc heterodimer (human)
[17] = target: HLA-DR (DRA1*01:01 / DRB1*04:04), soluble knob-into-hole Fc heterodimer (human)
[18] = target: HLA-DR (DRA1*01:01 / DRB1*15:01), soluble knob-into-hole Fc heterodimer (human)
[19] = target: HLA-DR (DRA1*01:01 / DRB1*01:01), soluble knob-into-hole Fc heterodimer (human)
[20] = target: HLA-DR (DRA1*01:01 / DRB1*04:01), soluble knob-into-hole Fc heterodimer (human)
[21] = target: HLA-DR (DRA1*01:01 / DRB1*04:05), soluble knob-into-hole Fc heterodimer (human)
[22] = target: HLA-DR (DRA1*01:01 / DRB1*15:02), soluble knob-into-hole Fc heterodimer (human)
[23] = target: HLA-DR (DRA1*01:01 / DRB1*10:01), soluble knob-into-hole Fc heterodimer (human)
[24] = target: HLA-DR (DRA1*01:01 / DRB1*07:01), soluble knob-into-hole Fc heterodimer (human)

Ki [1]: 23.9 nM
Ki [2]: 8.27 nM
Ki [3]: 5.52 nM
Ki [4]: 2.92 nM
Ki [5]: 4470 nM
Ki [6]: 67 nM
Ki [7]: 9.1 nM
Ki [8]: 47 nM
Ki [9]: 25.8 nM
Ki [10]: 11 nM
Ki [11]: 11.1 nM
Ki [12]: 3.68 nM
Ki [13]: 5.25 nM
Ki [14]: 350 nM
Ki [15]: 37.8 nM
Ki [16]: 5.96 nM
Ki [17]: 7.75 nM
Ki [18]: 6.31 nM
Ki [19]: 6.04 nM
Ki [20]: 6.46 nM
Ki [21]: 41.9 nM
Ki [22]: 23.1 nM
Ki [23]: 13.3 nM
Ki [24]: 6.87 nM
B1: human CLIP peptide, unlabelled competitor (peptide)
chain: KPVSKMRMATPLLMQALPM
